Source: the DeepSol protein solubility set

Assay: soluble on expression in E. coli; label from the status in PepcDB or PDB records

| Sequence | soluble on expression in E. coli |
| --- | --- |
| MKEFWVWVEPFDRKIVSVALEAGANAVVIPEKGRVEEVKKVGRITVIAPDGDLKLGEDVVYVLIKGKEDEERAAKYPPNVKVIVETTDWTVIPLENLIAQREELYAVVKNAQEAEVALQTLEKGVKGVVLKSRDINEIKKVGQIVSEHEEKLELVTIKITKILPLGLGDRVCVDTISLLHRGEGMLVGNSSGGMFLVHAETEENPYVAARPFRVNAGAVHMYIRVPNNRTKYLCELKAGDKVMVYDYKGRGRVTYVGRAKVERRPMLLIEGRYENKKLSCILQNAETIRLTKPDGTPISVSELKEGDEVLGYVEEAGRHFGMKVEETIIEK | not soluble |
| SPSPWGWFAVTACGAQRNNFEEPVALQEMDTSNGVLLPFYDPDSSIVYLCGKGDSSIRYFEITDEPPFVHYLNTFSSKEPQRGMGFMPKRGLDVSKCEIARFYKLHERKCEPIIMTVPRKSDLFQDDLYPDTPGPEPALEADEWLSGQDAEPVLISLRDGYVPPKHRELRVTKRNILDVRPPSGPRRSQSASDAPLSQHTLETLLEEIKALRERVQAQEQRITALENMLCELVDGTD | soluble |
| MAVEVVMPKLGMAMKEGIITSWNIKAGDNVAKGELIASINSEKIETEIEAPADGTILDIAVSEDEGVPPGTVICYIGKPNEKVEVHESTKVEEELTASEVPQNVQHPEPLGKEVTNKQRIKISPVAKKIAKTENLDIRALLGTGPGGRITKVDVLKALEERVAIPEVLEESKVLPVTGMRKAIANRMHASLQNSAQLTLTMKVDVTDLVALHKEIAEVVQKRYDNKLTITDFVSRAVVLALGEHKEMNSAYIDDAIHQFEHVHLGMAVALEKGLVVPAIRFANNLSLVELSKEIKNAAQKARAGNLNSDDMQGTTFTISNLGSFGIEYFTPVLNTPETGILGVGAIEHVPVYKGKKLKKGSMLPLSLTFDHRVLDGAPAAAFLRTIKRYLEEPVTILL | not soluble |
| QPVACPDCGPTLRLVDASGAGLPGDPVDQTVELLTEGKIVAIKGLGGYHLAVDAANDAAVAELRRRKHRDEKPFAVMARDMEAVARFALVDSVEARLLTGPEHPIVLLRKRPSTILSGRVAPANGYIGTMLPYTPLHHLLLEERFAALVMTSGNLSDEPISYRDDEAVERLSAIADAFLVHDREIRTRIDDSVIRVFRGSPLFLRRSRGYVPREVRLPVEIP | not soluble |
| MAVKVKKILISQPQPVAGRSPYYDIAQKHGCEVVFRPFIQVESVSAREFRNQKVNILDHSAIIFTARTAIDHFFSLCEELRVTVPETMKYFCVSESVAVYLQKHIVYRKRKIFFGATGKLEDLLTVISKHNKETYFVPLAEEHKHDLLDMLTAKKVSFSPAIMYRTVSNDFGPDEALDHDMILFFSPSGITALLKNFPKFEQGKTKIGAFGPTTAKAVEEAGLRLDLSAPTEQYPSMAMALEDYLNGK | not soluble |
| MSLEYKYELTIDKLLQSGVSSNPDQIINYTGKREFTFKDFSKRVNTLAKALISIGVKKGDRVAVIDWDTYVYLEAYFAVPMVDAVLHTVNVRYPQDLIYYTMDHAEDKYVIVRDEFVPILSKNREAFYFIKGWIVYSETGQIPDSLSPKYVYDDLMKESYSDIELPQLSENDLATTFYTSGTTGIPKGVQFTHRQIVLHSISSGLALADDPINLTSRDVIMPLVPMFHVHAWGVPYMSIMSGRRYVLPGRYDFDHIIDLIDKYNVSVIAMVPSILYLIVTNPNVKKIAGRGIKAIVGGGALPEGLANAAEKLGITAISGYGLSETAPILTLATYNERVKAMPESEKKKFRLKTGIPIPLVQLRVVDDKMNDVPKDEKTIGEIVVRAPWLTSVYVKNKEGTEALWRGDWMHTGDLAVMDEYGYIRIVDREKDAVKSGGEFIPSLVLEDAISSCSGVVENAVVGRPDEKWGERPVAFYTGTAKPDEIRKHLIEMVNAGRIAKFWIPDDFINIKEFAKTSTGKIDKKVLREMIKKEGHHHHHH | soluble |
| MDNHGILESLLFTAGDEGLDEKQLLEILDMSKDQLVELIENYSSHGLMIQRFGMTYVLTTKKEAATYIEQLIEQKSQMKLSQAAMEVLSIIAYNQPLSRSDIELIRSINSDGAVKTLIAKGLVEAKVVNEQRSQQLITTDLFLNVFGISNIEDLPTTEEDDEEMDAFFSNLVNQKGENND | not soluble |
| GMMNTPESRLVAAGLELPEVAAALGNYEPYSIVGSQLMTSGQFPYLQGKLLYQGQLGADYTVSEGYAACRLATLNAIAQLKQACGELSRIKQIYRLEGVLNVHQSCIEHPKALDGASDLLLEIFGEAGRHSRMIWTNPVMPLNSLCLVYLFAEL | soluble |
| MSLLDIERVREQQRPLPISKIRAQQSHTSFQGVFEEIAGHKSEKTVYAILETLEKDGERLAKHRTAAELHAFKRSVRQCVSHLLESLKVETASSAASGQVRQYKLVKEIDKGLVELTNAVFDQSKSELDLLNKIGELQGLIIQLYLEGHHHHHH | soluble |
| MGSDKIHHHHHHMKKIFKSIANSANCLADVLFPPHCLVCDSGLVLGETDVCSTCLSTLPTVNDDYSPDSLYLRLSIELRPSFVWAYLLFDSKNKTQKILHAIKYGDAPDIAVRLAMIWTDRIRESLVEADVDLIMPIPLHKSKLRKRGYNQATKIAEGIQKIVPIPIEESVLIRKRNLFIQAKSKRAKRFENVKQVYAIQHIEKVAGKHILLVDDVLTTGATLEACGLLLKNAGAAKVSVALLAMVAD | not soluble |
| MGSDKIHHHHHHMLYNTDFLSRLTQGVKYLSSAWGLSSEAKLTLLTISENATFRIADENSGRNLIVRVHRPDYHTEAEILSELAWIDALRQDGVVVTPRPISANDGSLLQIFSDGETMRHAVAFEYMAGKEPDAESDLVHWYRTLGEINAKLHAHSRRWTRPENFIRKTWNFNRILGNGAYWGDWRDALGLKPDGKSVLERTHALLETQTSAYGYGEERFGLVHCDMRAANLLVDGDRLGVIDFDDCGLSWFAYDFAAAISFMEHEPFIPDLMAAWLEGYRRVAPLDAQHEAALPMFIMLRRMQLTAWIASHAETPTAQSMGTAYTDGTVALAECYLAEHR | not soluble |
| MGSDKIHHHHHHANDETIEINYGESISLSAVAGKTTRTGSEATTTNSIRNFHVLAFTQGATYMDCDVRKQGNVWSYGDTKFWPETDVDFYSYSPMNTQNGNVSIKVEGDKKIANYNVPGDEDLLYALNQAEKKNEHEGERPVMVNFRHALSQIVFRIRNTSSNLTVFVDAVKVEGIEKQGTFFWPTLSTTTQWQGTEKDTETDNSWGRWNIVYNKENAKQNNYAAEIIPIMEQGFVGSIDASVRDLTVKTDNGYKGLLLLPQTLNPWITKTGGTDENPEYKITGTARVLVKCKLVDTVSNVQLWPNTNSHEETTWVGVSLVGEPKDINGKTEQVWKQGKRYVYTLIFGEGGGFNPDPDPENPDPEPVLVPITFAVTVDDFVEYPQDLDASVPNSNSGQ | not soluble |
| MAAAVRQDLAQLMNSSGSHKDLAGKYRQILEKAIQLSGTEQLEALKAFVEAMVNENVSLVISRQLLTDFCTHLPNLPDSTAKEVYHFTLEKIQPRVISFEEQVASIRQHLASIYEKEEDWRNAAQVLVGIPLETGQKQYNVDYKLETYLKIARLYLEDDDPVQAEAYINRASLLQNESTNEQLQIHYKVCYARVLDYRRKFIEAAQRYNELSYKTIVHESERLEALKACTGTAPILVSAGDSSALGGRAIFFKDKRCQQLAAYGILEKMYVDRIIRGNQLQEFAAMLMPHQKATTADGSSILDRAVIEHNLLSASKLYNNITFEELGALLEIPAAKAEKIASQMITEGRMNGFIDQIDGIVHFETREALPTWDKQIQSLCFQVNNLLEKISQTAPEWTAQAMEAQMAQ | soluble |
| METYAVFGNPIAHSKSPFIHQQFAQQLNIEHPYGRVLAPINDFINTLNAFFSAGGKGANVTVPFKEEAFARADELTERAALAGAVNTLMRLEDGRLLGDNTDGVGLLSDLERLSFIRPGLRILLIGAGGASRGVLLPLLSLDCAVTITNRTVSRAEELAKLFAHTGSIQALSMDELEGHEFDLIINATSSGISGDIPAIPSSLIHPGIYCYDMFYQKGKTPFLAWCEQRGSKRNADGLGMLVAQAAHAFLLWHGVLPDVEPVIKQLQEELSALEHHHHHH | soluble |
| MSTYQAATIVAAPNEFRVPFPPFVQISKVQFQREAGSRLLAASGWDGTCRVYEVGKLGDISEKLVFTHGKPLLTCTFAGYNKVAFGGVDHNVKLADIETGNGTQLGSHALAVRCMEFNPMSSLIVSGGWDSSVKLWDARSYGNGAIESVNVSSSVYAMDVLKHTILVGTKDRKIFMYDSRKLREPLQVRDSPLKYQTRAVQFFPTGEAFVVSSIEGRVAVEYVDQSGEEMMKRKYAFKCHREKDTDGTELIHPVHTVAFHPKYGTFATGGADGIVNIWDPFNRKRIIQLHKFETSISSLSFNEDGSQLAIATSYQYEKEIDPSPLPNNSITIRHITDPESRPK | not soluble |
| MSTDIDCIVIGAGVVGLAIARALAAGGHEVLVAEAAEGIGTGTSSRNSEVIHAGIYYPADSLKARLCVRGKHLLYEYCAARGVPHQRLGKLIVATSDAEASQLDSIARRAGANGVDDLQHIDGAAARRLEPALHCTAALVSPSTGIVDSHALMLAYQGDAENDGAQLVFHTPLIAGRVRPEGGFELDFGGAEPMTLSCRVLINAAGLHAPGLARRIEGIPQDSIPPEYLCKGSYFTLAGRAPFSRLIYPVPQHAGLGVHLTLELGGQAKFGPDTEWITTEDYTLDPRRADVFYAAVRSYWPALPDGALAPGYTGIRPKISGPHEPAADFAIAGPASHGVAGLVNLYGIKSPGLTASLAIAEETLARLAALEHHHHHH | not soluble |
| MKILITGGAGFIGSAVVRHIIKNTQDTVVNIDKLTYAGNLESLSDISESNRYNFEHADICDSAEITRIFEQYQPDAVMHLAAESHVDRSITGPAAFIETNIVGTYALLEVARKYWSALGEDKKNNFRFHHISTDEVYGDLPHPDEVENSVTLPLFTETTAYAPSSPYSASKASSDHLVRAWRRTYGLPTIVTNCSNNYGPYHFPEKLIPLVILNALEGKPLPIYGKGDQIRDWLYVEDHARALHMVVTEGKAGETYNIGGHNEKKNLDVVFTICDLLDEIVPKATSYREQITYVADRPGHDRRYAIDAGKISRELGWKPLETFESGIRKTVEWYLANTQWVNNVKSGAYQSWIEQNYEGRQ | soluble |
| MTATASDDEAVTALALSAAKGNGRALEAFIKATQQDVWRFVAYLSDVGSADDLTQETFLRAIGAIPRFSARSSARTWLLAIARHVVADHIRHVRSRPRTTRGARPEHLIDGD | soluble |
| MIVREGSAEILVPEVYHGPGKRGTGFYNADQKINRDITIEFIKKMGIRNVLDGFGGTGIRGIRISKETDSAVTISEVSPDSYRLIRDNVERNGSQASVINDSFECVLQHGAYEYVDVDPYGSPVPYLDAALMGVKRNGFLGVTATDQSALTGSVPHKTRIRYDALIKNDTFRHEMGIRLLIGYMAKRAASLGRFIDPLISIWHGHYYRVFVRVRKGFEGAGRMMQNLGYVNKHNLLSGIYQDMDEGPVWKGNLQDNAVAEAVLASAGHKAFNPEENRLLFCDLTDIARARHTSLPDIESVIDALSSSGHAASRTMFSPTGIKTDASCDLVESLMMDTLHRRSPA | not soluble |
| MGSDKIHHHHHHMEIKILVDNTAKGKFLAQSGFSAIIKDEDSKILFDCGQNAHVFENNLKLMGEDDDFDAVIFSHGHYDHTDGFNYFIEKYGENLDVPIYIHKSAFVDRYHGERYIGIDENIKNFLKNYKNLKLIEDPFKISENLIISGTIPRTNFYERENFEMIENGQKVDDIIIDDMFVIVKDIIISGCTHSGLINCITHAKTLKEVNGIIGGFHMGTASENYINQVKNYLKTQNFRLVSPVHCTGFNATKELSDISGFKFGHVGSVFEI | not soluble |
